In patent US20240279278A1, “NMU RECEPTOR 2 AGONISTS” (Boehringer Ingelheim International GmbH, priority 2023, published 2024):
Residues, ends and D or L forms follow the SMILES beside them.

T1: human NMUR1 receptor (Homo sapiens, UniProt Q9HB89)
T1 construct: expressed in transfected cells; host or cells: CHO-K1
T1 sequence (Q9HB89 1-426): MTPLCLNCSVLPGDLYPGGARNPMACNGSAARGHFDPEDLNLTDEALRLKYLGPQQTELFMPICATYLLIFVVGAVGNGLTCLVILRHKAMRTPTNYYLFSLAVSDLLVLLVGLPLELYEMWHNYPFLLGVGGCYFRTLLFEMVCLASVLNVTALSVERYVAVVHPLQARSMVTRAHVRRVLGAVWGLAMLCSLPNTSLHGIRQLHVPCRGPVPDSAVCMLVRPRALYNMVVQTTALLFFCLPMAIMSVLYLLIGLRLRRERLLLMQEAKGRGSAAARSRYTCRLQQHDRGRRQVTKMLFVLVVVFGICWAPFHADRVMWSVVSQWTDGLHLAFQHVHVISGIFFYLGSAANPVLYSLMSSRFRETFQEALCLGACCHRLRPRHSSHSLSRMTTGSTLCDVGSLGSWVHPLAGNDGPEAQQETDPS

T2: human neuromedin U receptor 1 (human, UniProt Q9HB89 24-426)
T2 sequence (looked up): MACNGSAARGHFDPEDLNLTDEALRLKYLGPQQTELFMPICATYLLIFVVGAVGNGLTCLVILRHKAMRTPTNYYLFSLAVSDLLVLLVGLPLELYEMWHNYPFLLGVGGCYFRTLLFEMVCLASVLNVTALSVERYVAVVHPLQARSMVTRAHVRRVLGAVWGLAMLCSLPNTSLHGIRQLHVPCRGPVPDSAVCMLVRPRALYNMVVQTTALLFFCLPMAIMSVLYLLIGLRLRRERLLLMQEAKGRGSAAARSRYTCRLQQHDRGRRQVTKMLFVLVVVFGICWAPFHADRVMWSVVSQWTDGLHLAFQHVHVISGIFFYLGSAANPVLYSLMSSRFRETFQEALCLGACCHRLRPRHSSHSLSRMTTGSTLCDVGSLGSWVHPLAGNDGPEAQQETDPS

B1: C20DA-gGlu3-Sar15-AEPipAc-Tyr-Phe-NMeLeu-Nle-Orn-NMeAla-Arg-Gly-NH2 (peptide)
peptide: EEEXXXXXXXXXXXXXXXXYFLXXARG
HELM: PEPTIDE1{[O=C(O)CCCCCCCCCCCCCCCCCCC(=O)[*:2]].[gGlu].[gGlu].[gGlu].[Sar].[Sar].[Sar].[Sar].[Sar].[Sar].[Sar].[Sar].[Sar].[Sar].[Sar].[Sar].[Sar].[Sar].[Sar].[O=C(CN1CCN(CCN[*:1])CC1)[*:2]].Y.F.[meL].[Nle].[Orn].[meA].R.G.[am]}$$$$V2.0
SMILES: CCCC[C@H](NC(=O)[C@H](CC(C)C)N(C)C(=O)[C@H](Cc1ccccc1)NC(=O)[C@H](Cc1ccc(O)cc1)NC(=O)CN1CCN(CCNC(=O)CN(C)C(=O)CN(C)C(=O)CN(C)C(=O)CN(C)C(=O)CN(C)C(=O)CN(C)C(=O)CN(C)C(=O)CN(C)C(=O)CN(C)C(=O)CN(C)C(=O)CN(C)C(=O)CN(C)C(=O)CN(C)C(=O)CN(C)C(=O)CN(C)C(=O)CC[C@H](NC(=O)CC[C@H](NC(=O)CC[C@H](NC(=O)CCCCCCCCCCCCCCCCCCC(=O)O)C(=O)O)C(=O)O)C(=O)O)CC1)C(=O)N[C@@H](CCCN)C(=O)N(C)[C@@H](C)C(=O)N[C@@H](CCCNC(=N)N)C(=O)NCC(N)=O
B2: C20DA-gGlu3-Sar15-AEPipAc-Tyr-Phe-NMeLeu-Nle-NMeArg-NMeAla-Arg-Gly-NH2 (peptide)
peptide: EEEXXXXXXXXXXXXXXXXYFLXRARG
HELM: PEPTIDE1{[O=C(O)CCCCCCCCCCCCCCCCCCC(=O)[*:2]].[gGlu].[gGlu].[gGlu].[Sar].[Sar].[Sar].[Sar].[Sar].[Sar].[Sar].[Sar].[Sar].[Sar].[Sar].[Sar].[Sar].[Sar].[Sar].[O=C(CN1CCN(CCN[*:1])CC1)[*:2]].Y.F.[meL].[Nle].[meR].[meA].R.G.[am]}$$$$V2.0
SMILES: CCCC[C@H](NC(=O)[C@H](CC(C)C)N(C)C(=O)[C@H](Cc1ccccc1)NC(=O)[C@H](Cc1ccc(O)cc1)NC(=O)CN1CCN(CCNC(=O)CN(C)C(=O)CN(C)C(=O)CN(C)C(=O)CN(C)C(=O)CN(C)C(=O)CN(C)C(=O)CN(C)C(=O)CN(C)C(=O)CN(C)C(=O)CN(C)C(=O)CN(C)C(=O)CN(C)C(=O)CN(C)C(=O)CN(C)C(=O)CN(C)C(=O)CC[C@H](NC(=O)CC[C@H](NC(=O)CC[C@H](NC(=O)CCCCCCCCCCCCCCCCCCC(=O)O)C(=O)O)C(=O)O)C(=O)O)CC1)C(=O)N(C)[C@@H](CCCNC(=N)N)C(=O)N(C)[C@@H](C)C(=O)N[C@@H](CCCNC(=N)N)C(=O)NCC(N)=O
B3: C18DA-gGlu3-Sar12-AEPipAc-Tyr-Phe-NMeLeu-Nle-NMeArg-NMeAla-Arg-Gly-NH2 (peptide)
peptide: EEEXXXXXXXXXXXXXYFLXRARG
HELM: PEPTIDE1{[O=C(O)CCCCCCCCCCCCCCCCC(=O)[*:2]].[gGlu].[gGlu].[gGlu].[Sar].[Sar].[Sar].[Sar].[Sar].[Sar].[Sar].[Sar].[Sar].[Sar].[Sar].[Sar].[O=C(CN1CCN(CCN[*:1])CC1)[*:2]].Y.F.[meL].[Nle].[meR].[meA].R.G.[am]}$$$$V2.0
SMILES: CCCC[C@H](NC(=O)[C@H](CC(C)C)N(C)C(=O)[C@H](Cc1ccccc1)NC(=O)[C@H](Cc1ccc(O)cc1)NC(=O)CN1CCN(CCNC(=O)CN(C)C(=O)CN(C)C(=O)CN(C)C(=O)CN(C)C(=O)CN(C)C(=O)CN(C)C(=O)CN(C)C(=O)CN(C)C(=O)CN(C)C(=O)CN(C)C(=O)CN(C)C(=O)CN(C)C(=O)CC[C@H](NC(=O)CC[C@H](NC(=O)CC[C@H](NC(=O)CCCCCCCCCCCCCCCCC(=O)O)C(=O)O)C(=O)O)C(=O)O)CC1)C(=O)N(C)[C@@H](CCCNC(=N)N)C(=O)N(C)[C@@H](C)C(=O)N[C@@H](CCCNC(=N)N)C(=O)NCC(N)=O
B4: C18DA-gGlu3-Sar12-AEPipAc-Tyr-Phe-NMeLeu-Nle-NMeArg-Pro-Arg-Gly-NH2 (peptide)
peptide: EEEXXXXXXXXXXXXXYFLXRPRG
HELM: PEPTIDE1{[O=C(O)CCCCCCCCCCCCCCCCC(=O)[*:2]].[gGlu].[gGlu].[gGlu].[Sar].[Sar].[Sar].[Sar].[Sar].[Sar].[Sar].[Sar].[Sar].[Sar].[Sar].[Sar].[O=C(CN1CCN(CCN[*:1])CC1)[*:2]].Y.F.[meL].[Nle].[meR].P.R.G.[am]}$$$$V2.0
SMILES: CCCC[C@H](NC(=O)[C@H](CC(C)C)N(C)C(=O)[C@H](Cc1ccccc1)NC(=O)[C@H](Cc1ccc(O)cc1)NC(=O)CN1CCN(CCNC(=O)CN(C)C(=O)CN(C)C(=O)CN(C)C(=O)CN(C)C(=O)CN(C)C(=O)CN(C)C(=O)CN(C)C(=O)CN(C)C(=O)CN(C)C(=O)CN(C)C(=O)CN(C)C(=O)CN(C)C(=O)CC[C@H](NC(=O)CC[C@H](NC(=O)CC[C@H](NC(=O)CCCCCCCCCCCCCCCCC(=O)O)C(=O)O)C(=O)O)C(=O)O)CC1)C(=O)N(C)[C@@H](CCCNC(=N)N)C(=O)N1CCC[C@H]1C(=O)N[C@@H](CCCNC(=N)N)C(=O)NCC(N)=O
B5: C20DA-gGlu4-Sar15-AEPipAc-Tyr-Phe-NMeLeu-Nle-Dbu-Pro-Arg-Gly-NH2 (peptide)
peptide: EEEEXXXXXXXXXXXXXXXXYFLXXPRG
HELM: PEPTIDE1{[O=C(O)CCCCCCCCCCCCCCCCCCC(=O)[*:2]].[gGlu].[gGlu].[gGlu].[gGlu].[Sar].[Sar].[Sar].[Sar].[Sar].[Sar].[Sar].[Sar].[Sar].[Sar].[Sar].[Sar].[Sar].[Sar].[Sar].[O=C(CN1CCN(CCN[*:1])CC1)[*:2]].Y.F.[meL].[Nle].[Dab].P.R.G.[am]}$$$$V2.0
SMILES: CCCC[C@H](NC(=O)[C@H](CC(C)C)N(C)C(=O)[C@H](Cc1ccccc1)NC(=O)[C@H](Cc1ccc(O)cc1)NC(=O)CN1CCN(CCNC(=O)CN(C)C(=O)CN(C)C(=O)CN(C)C(=O)CN(C)C(=O)CN(C)C(=O)CN(C)C(=O)CN(C)C(=O)CN(C)C(=O)CN(C)C(=O)CN(C)C(=O)CN(C)C(=O)CN(C)C(=O)CN(C)C(=O)CN(C)C(=O)CN(C)C(=O)CC[C@H](NC(=O)CC[C@H](NC(=O)CC[C@H](NC(=O)CC[C@H](NC(=O)CCCCCCCCCCCCCCCCCCC(=O)O)C(=O)O)C(=O)O)C(=O)O)C(=O)O)CC1)C(=O)N[C@@H](CCN)C(=O)N1CCC[C@H]1C(=O)N[C@@H](CCCNC(=N)N)C(=O)NCC(N)=O

Assays:
human NMUR1 receptor = target: T1, human NMUR1 receptor; assay: IP1 Gq HTRF assay, activation of human NMUR1 in buffer; assay type: cell-based; conditions: CHO-K1 cells expressing human NMUR1, stimulation buffer with 0.1% BSA; read-out: EC50 (hNMUR1) buffer
Procedure, shortened: (§1)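 IP-One HTRF competition (665/620 nm ratio) read after 1 h agonist exposure at 37 °C in pH 7.4 HEPES/HBSS stimulation buffer containing 50 mM LiCl, 0.1% BSA, 1% DMSO. Cells: CHO-K1 stably expressing human NMUR2 or NMUR1. EC50 by 4-parameter nonlinear regression of 8-point curves.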

human NMUR2 receptor [1] = target: T3, human NMUR2 receptor (Homo sapiens, UniProt Q9GZQ4); assay: IP1 Gq HTRF assay, activation of human NMUR2 in human plasma; assay type: cell-based; set-up: expressed in transfected cells; host or cells: CHO-K1; conditions: CHO-K1 cells expressing human NMUR2, 100% human plasma; read-out: EC50 (hNMUR2) human plasma
Procedure, shortened: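 EC50 obtained via 4-parameter sigmoidal regression of HTRF IP-One signal (665 nm/620 nm), which falls as intracellular IP1 rises. Stimulation: 1 h, 37° C, peptides in human plasma plus 50 mM LiCl, 1% DMSO final, on NMUR2-expressing CHO-K1 cells, 8 concentrations.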

human NMUR2 receptor [2] = target: T3, human NMUR2 receptor; assay: IP1 Gq HTRF assay, activation of human NMUR2 in buffer; assay type: cell-based; set-up: expressed in transfected cells; host or cells: CHO-K1; conditions: CHO-K1 cells expressing human NMUR2, stimulation buffer with 0.1% BSA; read-out: EC50 (hNMUR2) buffer
Procedure, shortened: as §1

[3] = target: T2, human neuromedin U receptor 1; assay: cell-based or functional assay

T3 sequence (Q9GZQ4 whole entry): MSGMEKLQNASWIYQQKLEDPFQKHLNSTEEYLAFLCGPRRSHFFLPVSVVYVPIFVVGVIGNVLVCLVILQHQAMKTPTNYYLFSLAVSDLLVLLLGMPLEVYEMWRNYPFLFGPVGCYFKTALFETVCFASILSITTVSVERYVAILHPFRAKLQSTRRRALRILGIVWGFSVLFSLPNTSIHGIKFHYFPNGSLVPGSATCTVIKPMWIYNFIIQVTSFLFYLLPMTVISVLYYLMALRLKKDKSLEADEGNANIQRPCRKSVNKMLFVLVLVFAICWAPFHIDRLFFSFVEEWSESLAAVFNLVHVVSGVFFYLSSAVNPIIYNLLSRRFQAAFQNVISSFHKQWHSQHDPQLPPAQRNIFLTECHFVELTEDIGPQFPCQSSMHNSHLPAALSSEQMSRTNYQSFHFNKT

Molecule	EC50 (hNMUR1) buffer [3] [nM]	other results
CCCC[C@H](NC(=O)[C@H](CC(C)C)N(C)C(=O)[C@H](Cc1ccccc1)NC(=O)[C@H](Cc1ccc(O)cc1)NC(=O)CN1CCN(C(=O)CN(C)C(=O)CN(C)C(=O)CN(C)C(=O)CN(C)C(=O)CN(C)C(=O)CN(C)C(=O)CN(C)C(=O)CN(C)C(=O)CN(C)C(=O)CN(C)C(=O)CN(C)C(=O)CN(C)C(=O)CN(C)C(=O)CN(C)C(=O)CN(C)C(=O)CC[C@H](NC(=O)CC[C@H](NC(=O)CC[C@H](NC(=O)CCCCCCCCCCCCCCCCC(=O)O)C(=O)O)C(=O)O)C(=O)O)CC1)C(=O)N[C@@H](CCN)C(=O)N(C)[C@@H](C)C(=O)N[C@@H](CCCNC(=N)N)C(=O)NCC(N)=O [Compound 79, C18DA-gGlu3-Sar15-PipAc-Tyr-Phe-NMeLeu-Nle-Dbu-NMeAla-Arg-Gly-NH2] (HELM PEPTIDE1{[O=C(O)CCCCCCCCCCCCCCCCC(=O)[*:2]].[gGlu].[gGlu].[gGlu].[Sar].[Sar].[Sar].[Sar].[Sar].[Sar].[Sar].[Sar].[Sar].[Sar].[Sar].[Sar].[Sar].[Sar].[Sar].[O=C(CN1CCN([*:1])CC1)[*:2]].Y.F.[meL].[Nle].[Dab].[meA].R.G.[am]}$$$$V2.0)	–	EC50 (human NMUR1 receptor): > 1000 nM; EC50 (human NMUR2 receptor [1]): 7 nM; EC50 (human NMUR2 receptor [2]): 1.3 nM
B1	> 1000	–
B2	1400	–
B3	1300	–
B4	190	–
B5	770	–
